Test results from article PMC6648351 (Nucleic Acids Research, 2019).
Numbering of substitutions follows the chain as printed. Numbers in names are those of the source.

B1: gp577 mutant D92A (enzyme, Acanthamoeba polyphaga mimivirus, UniProt A0A0G2YDL0 1-470, looked up)
chain: MAEDKIEAYNKSITRTKYFKMDDAINSPICSKTVFIIANERITKENRIGRYYTVFPSFKKFLKKRDSYPHCHEIIIDHINNKTNIAGRLVFAFDIKITDSSILKDTGLIDKNDNQPIMFNSKTLSITKIPLNFKQQIENTIIETIDQYFHDIDKTILEFIWSTSQNPNKFSKHLTVKNLYFDDWITMSKLFYKLFCKVWDNQYYWISSKDLVDSQIVRNKGSLRMVGSTKINGYPLVFDNKNHTLPDSLIRIYFRNHREKEQLVTRNNINKDIINQFLESNDDIEHHRSIDIIDRHFTKIRNPSYDPIIYQKAFEIYDAIHPNIFKMGKVNGKYLTLIRLKPHKCFLSNKFHEQENAYLYISMSDTTYKISFGCYRFCSKKKMEYLGSLIQGNLMKNSPYIDDTDGTTKKHDFNINIKFLSDSDDESINAPNNIKSLESIKSSKSKKQLKSSKSKKPIKHTKTKNIYVET
B2: gp577 mutant D239A (enzyme, Acanthamoeba polyphaga mimivirus, UniProt A0A0G2YDL0 1-470, looked up)
chain: B1 chain with A92D, D239A
B3: gp577 mutant D213A (enzyme, Acanthamoeba polyphaga mimivirus, UniProt A0A0G2YDL0 1-470, looked up)
chain: B1 chain with A92D, D213A
B4: gp577 mutant D151A (enzyme, Acanthamoeba polyphaga mimivirus, UniProt A0A0G2YDL0 1-470, looked up)
chain: B1 chain with A92D, D151A
B5: gp577 mutant H173A (enzyme, Acanthamoeba polyphaga mimivirus, UniProt A0A0G2YDL0 1-470, looked up)
chain: B1 chain with A92D, H173A

Target: the molecule itself
Assay: SEC

Protein	stoichiometry N
B1	2
B2	2
B3	2
B4	2
B5	2
